For test [1], the target named is LFA-1 leucine zipper fusion protein (soluble CD11a/CD18) (UniProt P20701). Kind of test: ELISA, CAM/Ig on captured soluble CD11a/CD18. (In an ELISA, binding on a coated surface is turned into a signal by an enzyme label.)
In test [2] the target is soluble human αd/CD18 leucine zipper heterodimer (human) (UniProt P05107). Kind of test: ELISA, CAM/Ig on αd/CD18LZ captured with 212D.

B1: ICAM-2/Ig (Fc fusion, part only; not given: Ig portion, UniProt P13598 25-223, looked up, part only)
chain, part: KVFEVHVRPKKLAVEPKGSLEVNCSTTCNQPEVGGLETSLDKILLDEQAQWKHYLVSNISHDTVLQCHFTCSGKQESMNSNVSVYQPPRQVILTLQPTLVAVGKSFTIECRVPTVEPLDSLTLFLFRGNETLHYETFGKAAPAPQEATATFNSTADREDGHRNFSCLAVLDLMSRGGNIFHKHSAPKMLEIYEPVSDSQ
For the molecule B1, the fold above background in test [1] was 10 fold.

B2: soluble VCAM-1/IgG1 fusion protein (seven extracellular immunoglobulin-like domains) (Fc fusion, UniProt P19320 25-698, looked up, not shown: a dimerising Fc or GST)
chain: FKIETTPESRYLAQIGDSVSLTCSTTGCESPFFSWRTQIDSPLNGKVTNEGTTSTLTMNPVSFGNEHSYLCTATCESRKLEKGIQVEIYSFPKDPEIHLSGPLEAGKPITVKCSVADVYPFDRLEIDLLKGDHLMKSQEFLEDADRKSLETKSLEVTFTPVIEDIGKVLVCRAKLHIDEMDSVPTVRQAVKELQVYISPKNTVISVNPSTKLQEGGSVTMTCSSEGLPAPEIFWSKKLDNGNLQHLSGNATLTLIAMRMEDSGIYVCEGVNLIGKNRKEVELIVQEKPFTVEISPGPRIAAQIGDSVMLTCSVMGCESPSFSWRTQIDSPLSGKVRSEGTNSTLTLSPVSFENEHSYLCTVTCGHKKLEKGIQVELYSFPRDPEIEMSGGLVNGSSVTVSCKVPSVYPLDRLEIELLKGETILENIEFLEDTDMKSLENKSLEMTFIPTIEDTGKALVCQAKLHIDDMEFEPKQRQSTQTLYVNVAPRDTTVLVSPSSILEEGSSVNMTCLSQGFPAPKILWSRQLPNGELQPLSENATLTLISTKMEDSGVYLCEGINQAGRSRKEVELIIQVTPKDIKLTAFPSESVKEGDTVIISCTCGNVPETWIILKKKAETGDTVLKSIDGAYTIRKAQLKDAGVYECESKNKVGSQLRSLTLDVQGRENNKDYFSPE
The molecule B2 returned a fold increase in signal above background in test [2] of 5 fold.

The record behind these values is patent US20020062008A1.
